According to publication PMC10957154:

Target: T1, DJ-1 (mouse (endogenous in mouse frontal cortex)), Q99LX0
T1 chain: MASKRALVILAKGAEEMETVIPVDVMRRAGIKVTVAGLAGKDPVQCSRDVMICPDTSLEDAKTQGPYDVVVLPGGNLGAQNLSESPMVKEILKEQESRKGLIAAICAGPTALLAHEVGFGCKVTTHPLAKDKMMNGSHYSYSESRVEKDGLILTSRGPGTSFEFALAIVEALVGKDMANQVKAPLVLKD
Experiment: cross-linking
Details: remark: other sources report otherwise

B1: DJ-1, Q99LX0 1-189 (natural protein)
chain: MASKRALVILAKGAEEMETVIPVDVMRRAGIKVTVAGLAGKDPVQCSRDVMICPDTSLEDAKTQGPYDVVVLPGGNLGAQNLSESPMVKEILKEQESRKGLIAAICAGPTALLAHEVGFGCKVTTHPLAKDKMMNGSHYSYSESRVEKDGLILTSRGPGTSFEFALAIVEALVGKDMANQVKAPLVLKD
- stoichiometry N: 2
